Data: patent US20080085859A1, “Drug Promoting Ceramide Transport, Base Sequence for Producing the Drug, Method of Measuring Activity of Promoting Ceramide Release and Method of Measuring Activity of Promoting Intermembrane Ceramide Transfer” (JAPAN SCIENCE AND TECHNOLOGY AGENCY, priority 2003, published 2008)

What was measured:
[1] = activity for promoting ceramide intermembrane transfer (donating/receiving membrane, castor seed lectin); format: biochemical
Description: Subsequently, as described in detail below, whether or not hCERT protein and recombinant protein promotes the transfer between ceramide lipid membrane was considered, the purified hCERT protein and its recombinant protein were used in this assay were used. The present method was constructed on the basis of the principle of method of measuring the activity for promoting the intermembrane transfer of phosphatidylinositol by phosphatidylinositol transfer protein already reported by Kasper et al (Biochim. Biophys. Acta 664, 22-32, 1981) so that it becomes a new method of measuring the activity for promoting the ceramide intermembrane transfer. For the purpose of measuring the activity for promoting the intermembrane transfer, a donating membrane in which radioactive ceramide has been contained and a receiving membrane not containing ceramide were prepared. For the purpose of separating the lipid membrane, lactocylceramide was contained in the donating membrane. After the donating membrane and receiving membrane have been incubated with the protein sample to be targeted, castor seed lectin was added. Ceramide intermembrane-transferred can be quantified by measuring the radioactive activity of receptor membrane which has not been precipitated by a low speed centrifugation. […]

LY-A2 cell = assay: content of phospholipids of cell; format: cell-based, Chinese hamster; settings: LY-A2/hCERT cell, FIG. 3(B)
Procedure: 3×10^6 cells per culture dish having the 150-mm diameter of CHO-K1 cell, LY-A2 cell, or LY-A2/hCERT cell was inoculated in 20 mL of F12/NBS medium, and cultured at 33° C. overnight. After it was washed twice in 10 mL of serum-free F12 medium, it was further cultured for 2 days in 20 mL of Nutridoma BO medium. After it was washed in PBS, the cells were collected by a method of scaping, suspended again in PBS, and lipid was extracted by a method described in Bligh et al (Can. J. Biochem. Physiol. 37, 911-917, 1959). The extracted lipid was separated using TLC whose development solvents were chloroform/methanol/acetic acid/H2O (volume ratio, 25:15:4:2). After the separated phospholipid on the TLC plate was colored by iodine vapor, the band of the respective separated phospholipid was scraped out from the plate. The scraped separated phospholipid was quantified by measuring phosphorus content by a method of Rouser et al (Lipids 1, 85-86, 1966).

LY-A cell = assay: recovery of ceramide transport function of LY-A cell by hCERT stable expression; format: cell-based, Chinese hamster; settings: FIG. 9
Description: Also in the original LY-A cell to which retrovirus receptor has not been introduced, it has been ascertained as described below that ceramide transport function is recovered by hCERT expression. hCERT inserted pcDNA3.1/Neo plasmid was introduced into LY-A cell by performing lipofection, after G418 resistant cell was selected, transformed strain LY-A/hCERT was purified by a limited-dilution. Subsequently, the measurement of the sensitivity to MCD, metabolism labeling experiment of lipid using [^14C] serine and [^14C] choline and cell labeling using C5-DMB-Cer and fluorescene microscopy observation were similarly performed.

B1: hCERT protein: human CERT protein having an amino acid sequence of SEQ ID NO:1 (protein)
chain: MSDNQSWNSSGSEEDPETESGPPVERCGVLSKWTNYIHGWQDRWVVLKNNALSYYKSEDETEYGCRGSICLSKAVITPHDFDECRFDISVNDSVWYLRAQDPDHRQQWIDAIEQHKTESGYGSESSLRRHGSMVSLVSGASGYSATSTSSFKKGHSLREKLAEMETFRDILCRQVDTLQKYFDACADAVSKDELQRDKVVEDDEDDFPTTRSDGDFLHSTNGNKEKLFPHVTPKGINGIDFKGEAITFKATTAGILATLSHCIELMVKREDSWQKRLDKETEKKRRTEEAYKNAMTELKKKSHFGGPDYEEGPNSLINEEEFFDAVEAALDRQDKIEEQSQSEKVRLHWPTSLPSGDAFSSVGTHRFVQKVEEMVQNHMTYSLQDVGGDANWQLVVEEGEMKVYRREVEENGIVLDPLKATHAVKGVTGHEVCNYFWNVDVRNDWETTIENFHVVETLADNAIIIYQTHKRVWPASQRDVLYLSVIRKIPALTENDPETWIVCNFSVDHDSAPLNNRCVRAKINVAMICQTLVSPPEGNQEISRDNILCKITYVANVNPGGWAPASVLRAVAKREYPKFLKRFTSYVQEKTAGKPILF
modifications: HeLa cell
activity for promoting ceramide intermembrane transfer ([1]; 37° C., 14C of supernatant and donating membrane, FIGS. 17, 18): detected depending on the amount of hCERT, the length of incubation time and incubation temperature
ceramide transferred to the receiving membrane vesicle ([1]; for 10 minutes): ~50%
SM content (LY-A2 cell): recovered to the wild type level
reactivity with respect to MCD, SM biosynthesis, C5-DMB-Cer transfer from ER to Golgi apparatus region (LY-A cell): recovered to the nature of the wild type
